The record followed here is publication PMC5858146.

The target in test [1] is Porcine gastric mucin (PGM) (porcine). As to the kind of experiment: ITC; ITC-200 at 37 °C, pH 7.4; PGM solution (40 μM) in the 200 μL cell, KTN or KOS solution (1% w/v) in the syringe.
Test [2] shares this target. The description is as above. The source holds these as a separate data set.
For test [3] the target is unchanged. The test is described as above. The source holds these as a separate data set.
The target is the same in test [4]. As to the kind of experiment: ITC; ITC-200 at 37 °C, pH 4.5; PGM solution (40 μM) in the 200 μL cell, KTN or KOS solution (1% w/v) in the syringe.

Take keratose (oxidized keratin, KOS): the dH is 61.1 kcal/mol in test [1], -61.1 kcal/mol in test [3] and -4.25 kcal/mol in test [4]. For the same substance, the figures for the Ka in test [2], in test [3] and in test [4] were 41400 M⁻¹, 4140 M⁻¹ and 15500 M⁻¹, respectively. Further, the values for the stoichiometry N in test [3] and in test [4] were 1.27 and 1.15, respectively.
For kerateine (reduced keratin, KTN), in test [3], the Ka turned out to be 10700 M⁻¹; the dH was -3.47 kcal/mol; the stoichiometry N (commonly the number of molecules, sites or subunits per partner or assembly) was 1.5. Further, in test [4], the Ka turned out to be 398000 M⁻¹, the dH was -2.41 kcal/mol and the stoichiometry N is 1.23.
